Data on six molecules can be found in paper PMC1636435 (Nucleic Acids Research, 2006).

B1: human RAD51AP1 (Gal4 two-hybrid fusion, all of RAD51AP1) (natural protein)
chain: MVRPVRHKKPVNYSQFDHSDSDDDFVSATVPLNKKSRTAPKELKQDKPKPNLNNLRKEEIPVQEKTPKKRMALDDKLYQRDLEVALALSVKELPTVTTNVQNSQDKSIEKHGSSKIETMNKSPHISNCSVASDYLDLDKITVEDDVGGVQGKRKAASKAAAQQRKILLEGSDGDSANDTEPDFAPGEDSEDDSDFCESEDNDEDFSMRKSKVKEIKKKEVKVKSPVEKKEKKSKSKCNALVTSVDSAPAAVKSESQSLPKKVSLSSDTTRKPLEIRSPSAESKKPKWVPPAASGGSRSSSSPLVVVSVKSPNQSLRLGLSRLARVKPLHPNATST
B2: human RAD51 (Gal4 two-hybrid fusion) (natural protein)
chain: MAMQMQLEANADTSVEEESFGPQPISRLEQCGINANDVKKLEEAGFHTVEAVAYAPKKELINIKGISEAKADKILAEAAKLVPMGFTTATEFHQRRSEIIQITTGSKELDKLLQGGIETGSITEMFGEFRTGKTQICHTLAVTCQLPIDRGGGEGKAMYIDTEGTFRPERLLAVAERYGLSGSDVLDNVAYARAFNTDHQTQLLYQASAMMVESRYALLIVDSATALYRTDYSGRGELSARQMHLARFLRMLLRLADEFGVAVVITNQVVAQVDGAAMFAADPKKPIGGNIIAHASTTRLYLRKGRGETRICKIYDSPCLPEAEAMFAINADGVGDAKD
B3: RAD51AP1-C89 (C-terminal 89 amino acids of human RAD51AP1) (domain or fragment)
chain: APAAVKSESQSLPKKVSLSSDTTRKPLEIRSPSAESKKPKWVPPAASGGSRSSSSPLVVVSVKSPNQSLRLGLSRLARVKPLHPNATST

A value given as a limit tells only on which side of the number the result lay.

Common to all, as to assay: two-hybrid
Test [1] addresses human RAD51 (Gal4 two-hybrid fusion) (human) (UniProt Q06609).
The target in test [2] is Saccharomyces cerevisiae RAD51 (Gal4 two-hybrid fusion) (Saccharomyces cerevisiae) (UniProt P25454).
Chain of Saccharomyces cerevisiae RAD51 (Gal4 two-hybrid fusion) (Saccharomyces cerevisiae) (P25454 whole entry, the tested form may be a part): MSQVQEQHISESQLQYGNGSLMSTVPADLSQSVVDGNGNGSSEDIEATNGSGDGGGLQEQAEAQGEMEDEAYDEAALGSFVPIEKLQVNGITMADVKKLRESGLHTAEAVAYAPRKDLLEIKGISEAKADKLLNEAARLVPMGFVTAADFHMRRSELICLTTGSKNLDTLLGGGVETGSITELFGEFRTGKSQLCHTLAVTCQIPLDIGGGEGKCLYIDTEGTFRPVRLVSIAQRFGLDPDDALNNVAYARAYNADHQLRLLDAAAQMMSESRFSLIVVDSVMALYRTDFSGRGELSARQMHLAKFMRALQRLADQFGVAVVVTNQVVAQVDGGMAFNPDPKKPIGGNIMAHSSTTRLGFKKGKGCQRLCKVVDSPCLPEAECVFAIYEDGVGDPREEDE
In test [3] the target is human DMC1 (Gal4 two-hybrid fusion) (human) (UniProt Q14565).
Chain of human DMC1 (Gal4 two-hybrid fusion) (human) (Q14565 whole entry, the tested form may be a part): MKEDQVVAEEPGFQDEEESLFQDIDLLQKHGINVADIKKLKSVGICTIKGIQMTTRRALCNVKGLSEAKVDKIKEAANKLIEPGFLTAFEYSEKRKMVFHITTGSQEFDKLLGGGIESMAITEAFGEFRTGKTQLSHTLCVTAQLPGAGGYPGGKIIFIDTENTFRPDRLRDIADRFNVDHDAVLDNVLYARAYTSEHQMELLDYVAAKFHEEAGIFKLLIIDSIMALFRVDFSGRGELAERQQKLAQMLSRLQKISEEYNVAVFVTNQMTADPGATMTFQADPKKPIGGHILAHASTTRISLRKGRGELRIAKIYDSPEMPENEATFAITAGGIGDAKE
In test [4] the target is human RAD51AP1 (Gal4 two-hybrid fusion, all of RAD51AP1) (human) (UniProt Q96B01).
Test [5] concerns the target RAD51AP2-C33 (C-terminal 33 amino acids of human RAD51AP2) (human) (UniProt Q09MP3).
The target of test [6] is RAD51AP2-C92 (last 92 amino acids of human RAD51AP2) (human) (UniProt Q09MP3).
Chain of RAD51AP2-C92 (last 92 amino acids of human RAD51AP2) (human) (Q09MP3 1068-1159): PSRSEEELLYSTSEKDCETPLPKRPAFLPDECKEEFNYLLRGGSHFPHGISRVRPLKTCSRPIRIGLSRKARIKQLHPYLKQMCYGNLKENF
Test [7] concerns the target Two larger fragments, each containing RAD54 79-118.
Test [8] has as its target B2.
The target in test [9] is T1, RAD51AP1-C25 (C-terminal 25 residues of human RAD51AP1) (human, UniProt Q96B01-2 311-335).
T1 chain: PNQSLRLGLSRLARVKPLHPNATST

The target in test [10] is B1.
In test [11] the target is B3.

Chain of RAD51AP2-C33 (C-terminal 33 amino acids of human RAD51AP2) (human) (Q09MP3 whole entry): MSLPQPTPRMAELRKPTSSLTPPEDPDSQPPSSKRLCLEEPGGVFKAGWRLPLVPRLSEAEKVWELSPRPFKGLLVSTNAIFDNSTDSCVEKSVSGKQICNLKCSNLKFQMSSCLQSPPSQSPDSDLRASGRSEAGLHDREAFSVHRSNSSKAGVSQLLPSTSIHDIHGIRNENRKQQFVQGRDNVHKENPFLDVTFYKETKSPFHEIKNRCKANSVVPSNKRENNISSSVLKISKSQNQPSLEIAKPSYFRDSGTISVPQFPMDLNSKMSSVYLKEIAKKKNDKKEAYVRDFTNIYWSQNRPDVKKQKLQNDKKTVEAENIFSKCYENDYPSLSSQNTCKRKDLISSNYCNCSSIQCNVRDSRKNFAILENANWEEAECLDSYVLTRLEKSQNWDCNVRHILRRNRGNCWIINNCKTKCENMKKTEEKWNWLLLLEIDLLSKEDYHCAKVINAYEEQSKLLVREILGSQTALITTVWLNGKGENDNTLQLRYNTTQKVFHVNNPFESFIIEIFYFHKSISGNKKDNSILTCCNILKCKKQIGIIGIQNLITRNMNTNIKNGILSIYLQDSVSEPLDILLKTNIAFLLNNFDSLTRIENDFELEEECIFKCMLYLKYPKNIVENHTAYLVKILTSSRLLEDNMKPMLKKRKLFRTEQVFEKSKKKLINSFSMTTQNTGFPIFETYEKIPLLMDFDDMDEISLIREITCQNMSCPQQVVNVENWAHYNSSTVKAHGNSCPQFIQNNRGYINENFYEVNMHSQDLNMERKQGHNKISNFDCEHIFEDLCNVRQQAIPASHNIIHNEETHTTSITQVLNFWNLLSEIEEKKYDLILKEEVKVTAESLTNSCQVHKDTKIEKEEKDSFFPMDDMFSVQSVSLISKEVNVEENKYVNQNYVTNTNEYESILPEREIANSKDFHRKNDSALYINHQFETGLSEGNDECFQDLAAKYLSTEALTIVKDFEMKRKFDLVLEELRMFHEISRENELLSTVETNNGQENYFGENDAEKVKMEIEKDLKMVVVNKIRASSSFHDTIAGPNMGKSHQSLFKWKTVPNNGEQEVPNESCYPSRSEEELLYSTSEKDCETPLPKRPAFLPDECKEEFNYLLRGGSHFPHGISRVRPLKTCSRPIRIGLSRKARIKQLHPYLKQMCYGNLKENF

“RAD51AP2-C92 (last 92 amino acids of human RAD51AP2) (from UniProt Q09MP3 1068-1159) (domain or fragment)” registered a units of β-galactosidase (units of β-galactosidase) in test [1] of 143.
For “RAD51AP2-C321 (C-terminal 321 amino acids of human RAD51AP2) (from UniProt Q09MP3 839-1159) (domain or fragment)”, the units of β-galactosidase (units of β-galactosidase) in test [2] was less than 0.3; in test [3], less than 0.3; in [1], 301; in test [4], less than 0.3.
“human RAD51 (Gal4 two-hybrid fusion) (from UniProt Q06609 1-339) (natural protein)”: the units of β-galactosidase (units of β-galactosidase) amounted to 395 in [5] and 521 in [6]. The percent of the interaction of RAD54-N142 with RAD51 in test [7] is greater than 70%.
In the case of B1, in [8], the “units of β-galactosidase” value was 111 units of β-galactosidase.
Consider B2, for which the “units of β-galactosidase” value in test [9] was 473 units of β-galactosidase; in test [10] it was 590 units of β-galactosidase; in [11], 420 units of β-galactosidase.
For B3, in test [8], the “units of β-galactosidase” value was 24.6 units of β-galactosidase.
